Source: patent publication US11278600B2, “Human alpha-galactosidase variants” (Codexis, Inc., priority 2014, dated 2022)
Residue numbers refer to the chain shown, from its start.

Assays:
Assay type in all cases: biochemical
[1] = HTP-analysis of yeast culture supernatants, no challenge (MUGal hydrolysis); details: activity of the variant/activity of Rd3BB (SEQ ID NO: 13)
Outline: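 Activity read as 4-methylumbelliferyl α-D-galactopyranoside hydrolysis: fluorescence (355/448 nm) after sodium carbonate stop, following 30-180 min at 37° C with 2 mM MUGal stock at pH 4.6–4.8. Enzyme source is unchallenged culture supernatant of INVSc1 yeast expressing GLA variants, grown 66-84 h at 30° C.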

[2] = HTP-analysis of supernatants pretreated with acid (MUGal hydrolysis); details: activity of the variant/activity of Rd3BB (SEQ ID NO: 13); challenge at pH 3.7
Outline: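 GLA variants were secreted from INVSc1 yeast grown 66-84 h at 30° C. in SD-Ura with 2% glucose; supernatants were mixed with McIlvaine buffer pH 3.3-4.3 and held at 37° C. for 1-3 h. Residual activity on MUGal at pH 4.8 was then measured by fluorescence.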

[3] = HTP-analysis of supernatants pretreated with base (MUGal hydrolysis); details: activity of the variant/activity of Rd3BB (SEQ ID NO: 13); challenge at pH 9.7
Outline: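 Supernatants from INVSc1 yeast expressing GLA variants (SD-Ura, 66-84 h, 30° C) were mixed with McIlvaine buffer pH 7.0-8.2 or 200 mM sodium bicarbonate pH 9.1-9.7 and held 1-18 h at 37° C. Residual activity was then measured on MUGal at pH 4.8/4.3, 37° C, 30-180 min, by fluorescence (Ex 355/Em 448 nm).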

B1: 569 (protein)
chain: LDNGLARTPTMGWLHWERFMCNLDCQEEPDSCISEKLFMEMAERMVSEGWKDAGYEYLCIDDCWMAPQRDSEGRLQADPQRFPHGIRQLANHVHSKGLKLGIYADVGNKTCAGFPGSFGYYDIDAQTFADWGVDLLKFDGCYCDSLENLADGYKHMSLALNRTGRSIVYSCEWPLYMWPFQKPNYTEIRQYCNHWRNFADIDDSWASIKSILDWTSRNQERIVDVAGPGGWNDPDMLVIGNFGLSWDQQVTQMALWAIMAAPLFMSNDLRHISPQAKALLQDKDVIAINQDPLGKQGYQLRKGDNFEVWERPLSGDAWAVAIINRQEIGGPRSYTIPVASLGKGVACWPACFITQLLPVKRQLGFYNWTSRLKSHINPTGTVLLQLENTMQMSLKDLL
modifications: Synthetic Polypeptide sequence of Variant No. 569 of mature Human GLA
[1]
  Relative Activity of GLA Variants After No Challenge (NC): + (+ = 1.5 to 5 relative activity over Rd3BB (SEQ ID NO: 13))
[2]
  Relative Activity of GLA Variants After Challenge at pH 3.7: + (+ = 1.5 to 5 relative activity over Rd3BB (SEQ ID NO: 13))
[3]
  Relative Activity of GLA Variants After Challenge at pH 9.7: ++ (++ = >5 to 10 relative activity over Rd3BB (SEQ ID NO: 13))

B2: 577 (protein)
chain: B1 chain with W246A, W348N
modifications: Synthetic Polypeptide sequence of Variant No. 577 of mature Human GLA
[1]
  Relative Activity of GLA Variants After No Challenge (NC): + (+ = 1.5 to 5 relative activity over Rd3BB (SEQ ID NO: 13))
[2]
  Relative Activity of GLA Variants After Challenge at pH 3.7: +++ (+++ = >10 relative activity over Rd3BB (SEQ ID NO: 13))
[3]
  Relative Activity of GLA Variants After Challenge at pH 9.7: ++ (++ = >5 to 10 relative activity over Rd3BB (SEQ ID NO: 13))

B3: 575 (protein)
chain: B1 chain with S314N, W348N
modifications: Synthetic Polypeptide sequence of Variant No. 575 of mature Human GLA
[1]
  Relative Activity of GLA Variants After No Challenge (NC): + (+ = 1.5 to 5 relative activity over Rd3BB (SEQ ID NO: 13))
[2]
  Relative Activity of GLA Variants After Challenge at pH 3.7: + (+ = 1.5 to 5 relative activity over Rd3BB (SEQ ID NO: 13))
[3]
  Relative Activity of GLA Variants After Challenge at pH 9.7: ++ (++ = >5 to 10 relative activity over Rd3BB (SEQ ID NO: 13))

B4: 579 (protein)
chain: B1 chain with W246P, W348N
modifications: Synthetic Polypeptide sequence of Variant No. 579 of mature Human GLA
[1]
  Relative Activity of GLA Variants After No Challenge (NC): + (+ = 1.5 to 5 relative activity over Rd3BB (SEQ ID NO: 13))
[2]
  Relative Activity of GLA Variants After Challenge at pH 3.7: +++ (+++ = >10 relative activity over Rd3BB (SEQ ID NO: 13))
[3]
  Relative Activity of GLA Variants After Challenge at pH 9.7: ++ (++ = >5 to 10 relative activity over Rd3BB (SEQ ID NO: 13))

B5: 576 (protein)
chain: B1 chain with S314Y, W348N
modifications: Synthetic Polypeptide sequence of Variant No. 576 of mature Human GLA
[1]
  Relative Activity of GLA Variants After No Challenge (NC): + (+ = 1.5 to 5 relative activity over Rd3BB (SEQ ID NO: 13))
[2]
  Relative Activity of GLA Variants After Challenge at pH 3.7: + (+ = 1.5 to 5 relative activity over Rd3BB (SEQ ID NO: 13))
[3]
  Relative Activity of GLA Variants After Challenge at pH 9.7: ++ (++ = >5 to 10 relative activity over Rd3BB (SEQ ID NO: 13))

B6: 572 (protein)
chain: B1 chain with N305L, W348N
modifications: Synthetic Polypeptide sequence of Variant No. 572 of mature Human GLA
[1]
  Relative Activity of GLA Variants After No Challenge (NC): + (+ = 1.5 to 5 relative activity over Rd3BB (SEQ ID NO: 13))
[2]
  Relative Activity of GLA Variants After Challenge at pH 3.7: +++ (+++ = >10 relative activity over Rd3BB (SEQ ID NO: 13))
[3]
  Relative Activity of GLA Variants After Challenge at pH 9.7: ++ (++ = >5 to 10 relative activity over Rd3BB (SEQ ID NO: 13))

B7: 578 (protein)
chain: B1 chain with W246I, W348N
modifications: Synthetic Polypeptide sequence of Variant No. 578 of mature Human GLA
[1]
  Relative Activity of GLA Variants After No Challenge (NC): + (+ = 1.5 to 5 relative activity over Rd3BB (SEQ ID NO: 13))
[2]
  Relative Activity of GLA Variants After Challenge at pH 3.7: +++ (+++ = >10 relative activity over Rd3BB (SEQ ID NO: 13))
[3]
  Relative Activity of GLA Variants After Challenge at pH 9.7: ++ (++ = >5 to 10 relative activity over Rd3BB (SEQ ID NO: 13))

B8: 573 (protein)
chain: B1 chain with S314A, W348N
modifications: Synthetic Polypeptide sequence of Variant No. 573 of mature Human GLA
[1]
  Relative Activity of GLA Variants After No Challenge (NC): + (+ = 1.5 to 5 relative activity over Rd3BB (SEQ ID NO: 13))
[2]
  Relative Activity of GLA Variants After Challenge at pH 3.7: + (+ = 1.5 to 5 relative activity over Rd3BB (SEQ ID NO: 13))
[3]
  Relative Activity of GLA Variants After Challenge at pH 9.7: ++ (++ = >5 to 10 relative activity over Rd3BB (SEQ ID NO: 13))

B9: 571 (protein)
chain: B1 chain with N305K, W348N
modifications: Synthetic Polypeptide sequence of Variant No. 571 of mature Human GLA
[1]
  Relative Activity of GLA Variants After No Challenge (NC): + (+ = 1.5 to 5 relative activity over Rd3BB (SEQ ID NO: 13))
[2]
  Relative Activity of GLA Variants After Challenge at pH 3.7: + (+ = 1.5 to 5 relative activity over Rd3BB (SEQ ID NO: 13))
[3]
  Relative Activity of GLA Variants After Challenge at pH 9.7: ++ (++ = >5 to 10 relative activity over Rd3BB (SEQ ID NO: 13))

B10: 574 (protein)
chain: B1 chain with S314H, W348N
modifications: Synthetic Polypeptide sequence of Variant No. 574 of mature Human GLA
[1]
  Relative Activity of GLA Variants After No Challenge (NC): + (+ = 1.5 to 5 relative activity over Rd3BB (SEQ ID NO: 13))
[2]
  Relative Activity of GLA Variants After Challenge at pH 3.7: + (+ = 1.5 to 5 relative activity over Rd3BB (SEQ ID NO: 13))
[3]
  Relative Activity of GLA Variants After Challenge at pH 9.7: ++ (++ = >5 to 10 relative activity over Rd3BB (SEQ ID NO: 13))

B11: 570 (protein)
chain: B1 chain with W348N, T354S
modifications: Synthetic Polypeptide sequence of Variant No. 570 of mature Human GLA
[1]
  Relative Activity of GLA Variants After No Challenge (NC): + (+ = 1.5 to 5 relative activity over Rd3BB (SEQ ID NO: 13))
[2]
  Relative Activity of GLA Variants After Challenge at pH 3.7: + (+ = 1.5 to 5 relative activity over Rd3BB (SEQ ID NO: 13))
[3]
  Relative Activity of GLA Variants After Challenge at pH 9.7: ++ (++ = >5 to 10 relative activity over Rd3BB (SEQ ID NO: 13))
